Assay results published in the supplement of paper PMC6379048.

Experiments:
HNRNPA2B1 = HNRNPA2B1 (UniProt P22626); assay: EC50 of free RNA motif oligo competing protein binding to immobilised probe
Summary of the method: (§1)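 Free RNA oligos (0 nM to 30 μM) competed for 1 h at 4°C in HEK293-FT lysate (2.5 mg protein/well) before a 30 min, 4°C pulldown with the same oligos on NHS-Sepharose beads. Bound proteins were quantified by label-free LC-MS/MS and normalised to the control. Kd was found by multiplying EC50, from a four-parameter log-logistic fit, by a protein-dependent depletion factor.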

ATIC = ATIC (UniProt P31939); assay: as above
ATIC, sequence (P31939 whole entry, looked up): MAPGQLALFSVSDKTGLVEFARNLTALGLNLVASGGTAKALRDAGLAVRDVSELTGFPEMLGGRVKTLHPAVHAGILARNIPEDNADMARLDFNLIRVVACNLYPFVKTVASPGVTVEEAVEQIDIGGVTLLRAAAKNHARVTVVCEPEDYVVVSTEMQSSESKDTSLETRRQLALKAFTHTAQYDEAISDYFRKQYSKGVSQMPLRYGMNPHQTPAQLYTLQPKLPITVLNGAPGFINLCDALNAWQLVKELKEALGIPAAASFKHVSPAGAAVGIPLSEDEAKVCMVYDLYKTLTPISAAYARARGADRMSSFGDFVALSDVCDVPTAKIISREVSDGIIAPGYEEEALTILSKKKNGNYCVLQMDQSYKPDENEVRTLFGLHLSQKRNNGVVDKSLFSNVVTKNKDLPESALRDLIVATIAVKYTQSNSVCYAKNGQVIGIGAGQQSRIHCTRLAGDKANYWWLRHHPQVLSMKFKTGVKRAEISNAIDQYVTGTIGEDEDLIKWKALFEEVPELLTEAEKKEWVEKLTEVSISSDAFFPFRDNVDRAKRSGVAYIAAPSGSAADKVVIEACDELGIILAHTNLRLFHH
Summary of the method: as §1

MRPS34 = MRPS34 (UniProt P82930); assay: as above
Summary of the method: as §1

TRIM56 = molecular target: T1, TRIM56 (UniProt Q9BRZ2); assay: as above
T1 sequence: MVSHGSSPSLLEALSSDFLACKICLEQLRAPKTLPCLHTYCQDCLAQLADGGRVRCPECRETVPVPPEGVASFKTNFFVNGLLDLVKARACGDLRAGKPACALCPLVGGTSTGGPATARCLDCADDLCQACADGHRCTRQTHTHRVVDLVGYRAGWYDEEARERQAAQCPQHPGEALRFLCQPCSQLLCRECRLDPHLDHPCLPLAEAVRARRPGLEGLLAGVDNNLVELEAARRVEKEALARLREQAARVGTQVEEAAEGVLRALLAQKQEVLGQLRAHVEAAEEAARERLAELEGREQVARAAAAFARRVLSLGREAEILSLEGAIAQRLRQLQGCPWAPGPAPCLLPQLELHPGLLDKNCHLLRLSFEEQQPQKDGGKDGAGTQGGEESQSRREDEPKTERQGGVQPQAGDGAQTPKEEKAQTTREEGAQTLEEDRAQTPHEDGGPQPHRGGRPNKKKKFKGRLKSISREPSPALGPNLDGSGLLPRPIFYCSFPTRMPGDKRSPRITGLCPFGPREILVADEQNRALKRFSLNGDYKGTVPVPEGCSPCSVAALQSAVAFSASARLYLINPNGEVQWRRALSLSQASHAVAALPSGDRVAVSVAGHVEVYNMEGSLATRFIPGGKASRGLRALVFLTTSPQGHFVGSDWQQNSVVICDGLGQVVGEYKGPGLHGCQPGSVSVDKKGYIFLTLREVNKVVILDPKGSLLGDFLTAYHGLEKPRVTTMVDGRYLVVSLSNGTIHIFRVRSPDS
Summary of the method: as §1

TARDBP = TARDBP (UniProt Q13148); assay: as above
TARDBP, sequence (Q13148 whole entry): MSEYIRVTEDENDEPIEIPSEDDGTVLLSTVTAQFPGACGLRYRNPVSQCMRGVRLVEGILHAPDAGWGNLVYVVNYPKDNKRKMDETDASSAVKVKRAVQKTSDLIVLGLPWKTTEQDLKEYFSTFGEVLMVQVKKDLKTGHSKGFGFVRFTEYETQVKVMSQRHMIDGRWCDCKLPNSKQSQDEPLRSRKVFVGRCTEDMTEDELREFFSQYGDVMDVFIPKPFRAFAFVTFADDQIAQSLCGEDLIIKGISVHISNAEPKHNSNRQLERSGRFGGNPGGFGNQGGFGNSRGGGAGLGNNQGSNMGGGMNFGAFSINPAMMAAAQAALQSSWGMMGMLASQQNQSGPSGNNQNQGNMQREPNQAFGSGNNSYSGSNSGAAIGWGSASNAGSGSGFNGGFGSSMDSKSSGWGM
Summary of the method: as §1

C1QBP = molecular target: T2, C1QBP (UniProt Q07021); assay: Kd (EC50 corrected by depletion factor)
T2 sequence: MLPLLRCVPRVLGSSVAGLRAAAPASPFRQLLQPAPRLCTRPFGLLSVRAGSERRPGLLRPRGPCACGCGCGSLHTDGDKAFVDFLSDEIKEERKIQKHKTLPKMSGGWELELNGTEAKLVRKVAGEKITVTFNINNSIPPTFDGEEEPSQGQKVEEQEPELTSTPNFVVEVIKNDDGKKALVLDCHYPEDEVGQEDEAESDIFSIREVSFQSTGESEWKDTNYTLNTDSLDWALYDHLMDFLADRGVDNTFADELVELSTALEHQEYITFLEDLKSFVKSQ
Summary of the method: as §1

PIP5K1A = PIP5K1A (UniProt Q99755); assay: EC50 of free RNA motif oligo competing protein binding to immobilised probe
PIP5K1A, sequence (Q99755 whole entry): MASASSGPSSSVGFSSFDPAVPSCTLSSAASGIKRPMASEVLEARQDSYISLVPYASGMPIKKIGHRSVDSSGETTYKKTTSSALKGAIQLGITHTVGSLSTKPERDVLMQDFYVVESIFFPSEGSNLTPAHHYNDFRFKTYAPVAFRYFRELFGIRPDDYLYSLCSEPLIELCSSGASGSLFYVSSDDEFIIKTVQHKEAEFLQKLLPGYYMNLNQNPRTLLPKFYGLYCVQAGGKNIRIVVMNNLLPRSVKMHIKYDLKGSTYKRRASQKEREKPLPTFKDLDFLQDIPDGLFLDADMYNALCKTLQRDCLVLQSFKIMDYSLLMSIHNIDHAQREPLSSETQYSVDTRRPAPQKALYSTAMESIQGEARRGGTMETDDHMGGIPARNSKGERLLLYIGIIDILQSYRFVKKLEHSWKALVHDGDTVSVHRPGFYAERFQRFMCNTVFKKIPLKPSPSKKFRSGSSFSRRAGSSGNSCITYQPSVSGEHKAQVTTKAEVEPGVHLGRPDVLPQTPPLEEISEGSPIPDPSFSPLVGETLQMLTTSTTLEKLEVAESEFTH
Summary of the method: as §1

CXorf57 = CXorf57 (UniProt Q6NSI4); assay: as above
CXorf57, sequence (Q6NSI4 whole entry): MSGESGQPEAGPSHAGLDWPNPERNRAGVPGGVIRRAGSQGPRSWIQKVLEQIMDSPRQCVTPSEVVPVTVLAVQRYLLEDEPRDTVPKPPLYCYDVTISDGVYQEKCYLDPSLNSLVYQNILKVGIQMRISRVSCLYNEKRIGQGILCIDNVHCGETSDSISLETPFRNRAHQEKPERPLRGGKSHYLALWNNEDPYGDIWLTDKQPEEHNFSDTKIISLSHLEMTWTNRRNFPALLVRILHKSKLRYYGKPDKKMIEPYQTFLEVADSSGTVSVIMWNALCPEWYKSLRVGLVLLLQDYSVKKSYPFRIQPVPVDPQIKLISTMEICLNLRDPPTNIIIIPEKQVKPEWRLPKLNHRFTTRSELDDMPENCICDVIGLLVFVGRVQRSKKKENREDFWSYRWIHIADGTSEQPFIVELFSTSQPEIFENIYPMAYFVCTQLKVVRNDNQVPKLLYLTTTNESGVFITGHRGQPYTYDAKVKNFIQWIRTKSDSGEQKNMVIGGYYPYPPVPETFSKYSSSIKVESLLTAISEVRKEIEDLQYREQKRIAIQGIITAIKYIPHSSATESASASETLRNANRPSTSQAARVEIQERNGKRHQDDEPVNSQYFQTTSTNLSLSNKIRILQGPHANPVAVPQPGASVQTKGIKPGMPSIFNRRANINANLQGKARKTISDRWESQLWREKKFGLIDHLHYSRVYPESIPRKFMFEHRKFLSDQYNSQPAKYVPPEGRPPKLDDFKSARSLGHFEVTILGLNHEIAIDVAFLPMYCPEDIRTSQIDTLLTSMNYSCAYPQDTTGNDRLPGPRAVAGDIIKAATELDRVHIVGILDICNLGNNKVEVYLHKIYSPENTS
Summary of the method: as §1

P4HA2 = P4HA2 (UniProt O15460); assay: as above
P4HA2, sequence (O15460 whole entry): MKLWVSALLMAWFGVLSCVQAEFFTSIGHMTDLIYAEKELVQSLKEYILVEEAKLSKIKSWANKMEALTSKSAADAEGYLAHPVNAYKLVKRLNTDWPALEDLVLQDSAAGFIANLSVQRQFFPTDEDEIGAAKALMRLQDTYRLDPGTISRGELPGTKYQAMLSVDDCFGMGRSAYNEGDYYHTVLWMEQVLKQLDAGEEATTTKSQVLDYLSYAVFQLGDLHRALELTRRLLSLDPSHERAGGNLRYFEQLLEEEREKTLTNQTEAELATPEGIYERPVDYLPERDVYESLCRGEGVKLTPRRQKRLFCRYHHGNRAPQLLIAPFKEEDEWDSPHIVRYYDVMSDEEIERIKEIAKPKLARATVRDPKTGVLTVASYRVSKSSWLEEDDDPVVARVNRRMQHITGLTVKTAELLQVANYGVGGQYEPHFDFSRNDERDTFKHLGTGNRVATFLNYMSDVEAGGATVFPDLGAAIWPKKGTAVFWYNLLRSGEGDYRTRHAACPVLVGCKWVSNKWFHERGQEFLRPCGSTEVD
Summary of the method: as §1

HNRNPF = molecular target: T3, HNRNPF (UniProt P52597); assay: as above
T3 sequence: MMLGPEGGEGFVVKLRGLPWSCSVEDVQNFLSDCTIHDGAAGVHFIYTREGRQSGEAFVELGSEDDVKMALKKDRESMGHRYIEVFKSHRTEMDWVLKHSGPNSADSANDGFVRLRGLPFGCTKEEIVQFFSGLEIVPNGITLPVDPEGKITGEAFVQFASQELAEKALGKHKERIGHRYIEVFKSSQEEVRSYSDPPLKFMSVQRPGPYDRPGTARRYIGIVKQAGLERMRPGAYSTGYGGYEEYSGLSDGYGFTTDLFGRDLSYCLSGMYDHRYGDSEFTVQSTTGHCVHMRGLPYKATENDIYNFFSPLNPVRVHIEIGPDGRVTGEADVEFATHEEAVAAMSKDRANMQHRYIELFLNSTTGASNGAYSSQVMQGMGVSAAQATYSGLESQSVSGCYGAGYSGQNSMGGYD
Summary of the method: as §1

SRSF4 = molecular target: T4, SRSF4 (UniProt Q08170); assay: as above
T4 sequence: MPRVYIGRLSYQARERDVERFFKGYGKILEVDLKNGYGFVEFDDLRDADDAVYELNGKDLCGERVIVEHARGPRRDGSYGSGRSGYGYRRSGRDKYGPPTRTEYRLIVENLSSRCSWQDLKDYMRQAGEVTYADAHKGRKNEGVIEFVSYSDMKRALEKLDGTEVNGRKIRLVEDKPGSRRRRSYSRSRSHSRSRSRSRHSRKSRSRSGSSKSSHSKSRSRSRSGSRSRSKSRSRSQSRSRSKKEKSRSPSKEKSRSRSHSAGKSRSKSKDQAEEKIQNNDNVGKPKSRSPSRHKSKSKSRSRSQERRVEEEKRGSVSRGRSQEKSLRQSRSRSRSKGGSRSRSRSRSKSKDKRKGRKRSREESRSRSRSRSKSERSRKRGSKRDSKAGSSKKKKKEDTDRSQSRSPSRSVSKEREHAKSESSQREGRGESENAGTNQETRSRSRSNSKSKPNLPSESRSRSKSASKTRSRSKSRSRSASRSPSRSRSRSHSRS
Summary of the method: as §1

HNRNPA2B1, sequence (P22626 whole entry): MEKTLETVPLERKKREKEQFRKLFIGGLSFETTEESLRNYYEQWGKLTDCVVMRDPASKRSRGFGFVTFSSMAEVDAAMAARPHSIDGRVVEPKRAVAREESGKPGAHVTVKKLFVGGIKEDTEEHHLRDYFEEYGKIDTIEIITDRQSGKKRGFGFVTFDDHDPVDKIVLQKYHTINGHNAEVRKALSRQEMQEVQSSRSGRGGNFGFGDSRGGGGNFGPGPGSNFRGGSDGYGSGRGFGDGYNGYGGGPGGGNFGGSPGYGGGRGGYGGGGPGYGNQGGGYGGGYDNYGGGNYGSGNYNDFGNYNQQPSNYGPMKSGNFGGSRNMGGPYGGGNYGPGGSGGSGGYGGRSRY

UAUUUAU
EC50 (HNRNPA2B1): 7320 nM
EC50 (ATIC): 804 nM
EC50 (MRPS34): 59.7 nM
EC50 (TRIM56): 3450 nM
EC50 (TARDBP): 2790 nM

AAUAAA
Kd (C1QBP): 477 nM
EC50 (PIP5K1A): 2250 nM
EC50 (CXorf57): 3560 nM
EC50 (P4HA2): 38.9 nM
EC50 (HNRNPF): 6120 nM

CUGUCCU
EC50 (SRSF4): 978 nM
